Experimental data as given in PMC5405865.

Tests used:
[1] = target: The RNCs, denoted FLN5+L (with L = 21 to 110); test: co-purification with the RNC, western blot
[2] = target: 70S ribosomes; test: NMR titration

Substance | occupancy of the purified RNCs [1] [%] | reduction in resonance intensities with equimolar 70S ribosomes [2] [%]
DnaK (from UniProt P0A6Y8 1-638) (natural protein) | < 1.5 | –
FLN5∆12, 12-residue C-terminal truncation of isolated FLN5 (from UniProt P13466 646-738) (domain or fragment) | – | 30
FLN5 Y719E, isolated unfolded variant of FLN5 (from UniProt P13466 646-750) (domain or fragment) | – | 30
trigger factor (from UniProt P0A850 1-432) (natural protein) | < 1.5 | –
